PMC11661142 (bioRxiv, 2024)

How the values were obtained:
[1] = target: T1, ScPex1^G700D (Pex1-FLAG G700D), S. cerevisiae (S. cerevisiae, UniProt P24004 1-1043, G700D); experiment: SEC
T1 sequence: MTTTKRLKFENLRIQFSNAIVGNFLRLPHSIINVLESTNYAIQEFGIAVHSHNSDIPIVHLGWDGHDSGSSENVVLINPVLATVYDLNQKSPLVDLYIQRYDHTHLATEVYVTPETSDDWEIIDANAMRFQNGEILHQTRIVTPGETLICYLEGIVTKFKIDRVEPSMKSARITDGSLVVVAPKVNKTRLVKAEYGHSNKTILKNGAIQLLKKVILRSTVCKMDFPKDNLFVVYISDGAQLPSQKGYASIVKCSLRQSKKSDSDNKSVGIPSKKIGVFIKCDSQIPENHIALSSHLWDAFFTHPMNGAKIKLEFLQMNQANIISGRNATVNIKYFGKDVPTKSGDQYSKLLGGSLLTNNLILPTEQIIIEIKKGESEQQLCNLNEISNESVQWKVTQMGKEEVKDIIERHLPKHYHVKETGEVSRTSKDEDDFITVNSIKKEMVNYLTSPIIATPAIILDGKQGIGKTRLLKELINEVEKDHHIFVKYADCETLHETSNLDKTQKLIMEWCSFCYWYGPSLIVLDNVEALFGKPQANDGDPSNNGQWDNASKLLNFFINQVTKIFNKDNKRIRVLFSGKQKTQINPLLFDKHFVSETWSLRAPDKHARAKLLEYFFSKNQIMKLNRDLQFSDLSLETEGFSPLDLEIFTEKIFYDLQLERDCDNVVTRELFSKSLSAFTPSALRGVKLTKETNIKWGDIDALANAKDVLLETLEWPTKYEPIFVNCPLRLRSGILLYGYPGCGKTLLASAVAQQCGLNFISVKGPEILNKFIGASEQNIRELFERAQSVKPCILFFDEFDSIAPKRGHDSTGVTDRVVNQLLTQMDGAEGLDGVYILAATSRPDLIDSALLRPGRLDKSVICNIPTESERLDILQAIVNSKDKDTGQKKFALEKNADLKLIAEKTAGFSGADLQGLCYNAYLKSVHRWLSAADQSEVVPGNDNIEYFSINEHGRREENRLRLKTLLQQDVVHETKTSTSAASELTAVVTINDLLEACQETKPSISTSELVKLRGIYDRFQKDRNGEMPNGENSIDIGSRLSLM

[2] = target: T2, ScPex1^WT (Pex1-FLAG), S. cerevisiae (S. cerevisiae, UniProt P24004 1-1043); experiment: SEC
T2 sequence: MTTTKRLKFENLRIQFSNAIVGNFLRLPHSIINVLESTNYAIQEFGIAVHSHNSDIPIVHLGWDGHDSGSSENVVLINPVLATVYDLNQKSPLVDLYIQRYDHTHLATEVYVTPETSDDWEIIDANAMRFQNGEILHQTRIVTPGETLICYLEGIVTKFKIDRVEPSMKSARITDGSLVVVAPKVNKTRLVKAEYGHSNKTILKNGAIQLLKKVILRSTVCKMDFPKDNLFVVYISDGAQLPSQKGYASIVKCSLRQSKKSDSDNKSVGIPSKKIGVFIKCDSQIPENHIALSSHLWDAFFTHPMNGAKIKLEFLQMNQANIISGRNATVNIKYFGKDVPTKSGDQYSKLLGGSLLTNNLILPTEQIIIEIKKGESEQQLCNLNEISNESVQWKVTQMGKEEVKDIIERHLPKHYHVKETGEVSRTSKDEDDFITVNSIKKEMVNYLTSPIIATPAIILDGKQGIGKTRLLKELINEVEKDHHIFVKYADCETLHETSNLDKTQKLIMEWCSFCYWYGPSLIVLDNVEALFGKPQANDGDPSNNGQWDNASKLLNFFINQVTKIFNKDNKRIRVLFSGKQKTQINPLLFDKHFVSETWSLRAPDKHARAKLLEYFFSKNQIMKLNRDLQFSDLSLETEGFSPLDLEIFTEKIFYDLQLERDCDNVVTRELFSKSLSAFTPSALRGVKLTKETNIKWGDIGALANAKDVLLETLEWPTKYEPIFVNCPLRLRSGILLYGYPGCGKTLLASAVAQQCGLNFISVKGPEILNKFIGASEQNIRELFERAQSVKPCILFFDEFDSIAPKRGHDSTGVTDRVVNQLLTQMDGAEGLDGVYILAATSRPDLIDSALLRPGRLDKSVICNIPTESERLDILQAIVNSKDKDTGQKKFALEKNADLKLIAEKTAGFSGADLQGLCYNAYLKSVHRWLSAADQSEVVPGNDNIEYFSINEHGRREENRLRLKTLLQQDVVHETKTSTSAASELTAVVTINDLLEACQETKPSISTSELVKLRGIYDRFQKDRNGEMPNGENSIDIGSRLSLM

binding result [1]: binds
binding result [2]: binds
B1: ScPex6 (His-Pex6), S. cerevisiae (natural protein)
chain: MKASLTFSLSGIYAPCSISRDIYLEYGDKKAECLYGTIRLPQYGPGCTPGKIVHCVLDDSLPFCSIVVPSKLFGFMPTQPTMDFCYFEPILDNVVPVLDSVTFLINEQLYSKLMDLPQEMQQIQFLHYKYNINSMETVVHSRDILTSGLCQILNCSPFPQGLVDFTETQLILVNDTEQKLSALKYANEDEEYALPKIGTNSALSIDLESLPCTISRDLLRPAPHINDDNSIYAFTDAETLLRLDVTSGSFITVSNMGCVRLVKLFVLLLPNGFKKRTIYAPPKIIASFPDCSVVTISKSNIGHTDIPIANQVFISRVGGWLQSQKCFQNIILTTLKKFFSESKRILCQNDLIPIAFDSSMADLNIAEENDESDDEDELGQYYKNDSLVWFFVTSAELDCFSKDNSHFIIDPNRTKLITTNITNRRPLPLSRSNLQRYYGFAETFYYDLHIFPYVRQLVNILETSFNCSQRGITLNASVLLHSTTNNVGKATMVRFASKYLGIHLLEIDCLSLTSNSRQLDSTSKIIGYIRAKCENVLPYASPAVIFLAHLDSILLDVNANQDPEAIKLQKSINFEMSKLLDDFTFKFPGTTFVGSVNNIDNVPSSFRSHMRFEILVPVPSEAQRLRIFQWYLSSHELNRDVQQKVPVSYMDNISFSSLSSYSAGLTPLDIKSIVETARMTATARFYQESKKCGWLPQSILITQEDLSKATSKARNEFSVSIGAPQIPNVTWDDIGGIDFVKGEILDTIDMPLKHPELFTSGMKKRSGILFYGPPGTGKTLMAKAIATNFSLNFFSVKGPELLNMYIGESEANVRRVFQKAREAKPCVIFFDEIDSVAPKRGNQGDSGGVMDRIVSQLLAELDGMSTDADGVFVIGATNRPDLLDEALLRPGRFDKLLYLGIPDTDTKQLNILEALTRKFVLDNDVKLIELAKLCPFNYTGADFYALCSDAMLNAMSRIARMVEKKVSQHNELTGENISTRRWFDKIATKEDTKVVVKMEDFLKAQEQLTPSVSRAELNHYEAVRANFEGA
